The assay deals with T1, recombinant GST-tagged human occludin (human), Q16625.
T1 chain: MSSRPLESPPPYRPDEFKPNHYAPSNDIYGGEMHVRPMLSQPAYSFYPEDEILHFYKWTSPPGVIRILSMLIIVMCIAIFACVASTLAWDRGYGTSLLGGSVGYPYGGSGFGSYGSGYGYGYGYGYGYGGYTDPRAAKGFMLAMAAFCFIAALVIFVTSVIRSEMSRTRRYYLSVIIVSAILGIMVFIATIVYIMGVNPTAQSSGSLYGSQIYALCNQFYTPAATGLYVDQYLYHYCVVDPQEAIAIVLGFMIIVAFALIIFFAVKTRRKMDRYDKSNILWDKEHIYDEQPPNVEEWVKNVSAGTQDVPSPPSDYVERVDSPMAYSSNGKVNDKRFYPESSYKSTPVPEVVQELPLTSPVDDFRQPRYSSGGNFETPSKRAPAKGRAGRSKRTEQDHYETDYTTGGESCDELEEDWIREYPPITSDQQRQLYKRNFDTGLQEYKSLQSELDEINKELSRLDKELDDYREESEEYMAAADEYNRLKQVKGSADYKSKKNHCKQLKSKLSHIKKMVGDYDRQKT
As to the kind of experiment: SDS-PAGE and immunoblot; recombinant GST-occludin in 50 mM HEPES pH 7.4, 16 h at 37 °C, with or without purified HtrA; 12% SDS-PAGE, blots with α-occludin H-279 and α-GST. The conditions noted are these: remark: other sources report otherwise. Background: Immunoblotting shows a protein as a band on a membrane.

A word on the stoichiometry N: it is a count of units in the complex or per binding partner.

B1: recombinant GST-tagged human occludin, Q16625 1-522 (natural protein)
chain: MSSRPLESPPPYRPDEFKPNHYAPSNDIYGGEMHVRPMLSQPAYSFYPEDEILHFYKWTSPPGVIRILSMLIIVMCIAIFACVASTLAWDRGYGTSLLGGSVGYPYGGSGFGSYGSGYGYGYGYGYGYGGYTDPRAAKGFMLAMAAFCFIAALVIFVTSVIRSEMSRTRRYYLSVIIVSAILGIMVFIATIVYIMGVNPTAQSSGSLYGSQIYALCNQFYTPAATGLYVDQYLYHYCVVDPQEAIAIVLGFMIIVAFALIIFFAVKTRRKMDRYDKSNILWDKEHIYDEQPPNVEEWVKNVSAGTQDVPSPPSDYVERVDSPMAYSSNGKVNDKRFYPESSYKSTPVPEVVQELPLTSPVDDFRQPRYSSGGNFETPSKRAPAKGRAGRSKRTEQDHYETDYTTGGESCDELEEDWIREYPPITSDQQRQLYKRNFDTGLQEYKSLQSELDEINKELSRLDKELDDYREESEEYMAAADEYNRLKQVKGSADYKSKKNHCKQLKSKLSHIKKMVGDYDRQKT
Consider B1, for which the stoichiometry N was found to be 2.

(Values after PMC6373145.)
